For orientation: Kd means the constant that tells how readily two partners part at equilibrium.

Kd data for two molecules are collected here from US20040126379A1.

The experiment addresses human CD44v6 on antigen-positive FaDu cells (human) (UniProt P16070). The experiment is described as follows: flow cytometry (FACS) on antigen-positive FaDu cells, on ice 1 h, FITC-labeled anti-human IgG detection. (In general: Flow cytometry measures light scatter and fluorescence of single cells or particles in a stream.)

On to BIWI 1 (from UniProt P0DOX5 2-449), for which the Kd stood at 1.8 nM.

B1: BIWA 4 (antibody, human IgG1, kappa, V domains shown)
VH: EVQLVESGGGLVKPGGSLRLSCAASGFTFSSYDMSWVRQAPGKGLEWVSTISSGGSYTYYLDSIKGRFTISRDNAKNSLYLQMNSLRAEDTAVYYCARQGLDYWGRGTLVTVSS
VL: EIVLTQSPATLSLSPGERATLSCSASSSINYIYWYQQKPGQAPRLLIYLTSNLASGVPARFSGSGSGTDFTLTISSLEPEDFAVYYCLQWSSNPLTFGGGTKVEIKR
Turning to B1, the Kd amounted to 1 nM.
